Laboratory results published in patent US20260034233A1.

Molecular target: Cyno Gal-3 (Macaca fascicularis)
Assay: SPR; kinetic fit, which the text calls poor for the monkey sample; immobilised partner and concentrations not given

B1: SIF001 (antibody, V domains shown)
VH: QVQLVQSGSELKKPGASVKVSCKASGYTFTNYGMNWVRQAPGQGLEWMGWINTYTGEPTYADDFKGRFVFSLDTSVSTAYLQISSLKNEDMAVYFCARYAMDYWGQGTLVTVSS
VL: EAVVTQEPSLTVSPGGTVTLTCRSSTGAVTTSNYANWVQQKPGQAFTGLIGGTSNRAPGTPARFSGSLLGDKAALTLLGAQPEDEAEYFCALWYSTHYVFGGGTKLTVL
  Kd: 64.1 nM
